In series [1] the target is T1, QK RNA-binding domain (recombinant, purified) (UniProt Q9QYS9 1-213).
T1 sequence: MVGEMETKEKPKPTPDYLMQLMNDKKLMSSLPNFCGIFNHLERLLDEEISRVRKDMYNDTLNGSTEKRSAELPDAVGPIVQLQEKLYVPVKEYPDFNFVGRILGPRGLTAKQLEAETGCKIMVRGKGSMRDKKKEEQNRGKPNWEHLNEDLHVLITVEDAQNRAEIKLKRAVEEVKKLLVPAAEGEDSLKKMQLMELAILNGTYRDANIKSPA
The series is described as follows: competition; competes with Mbp QSBE; Kc,app value only in figure; EMSA on non-denaturing 5% polyacrylamide slab gel in 1x TBE; binding buffer, salt, pH and temperature not printed (per ref 64).

For series [2], the target named is T1, QK RNA-binding domain (recombinant, …). The series can be described thus: EMSA and fluorescence polarization; apparent Kd; EMSA on non-denaturing 5% polyacrylamide slab gel in 1x TBE; binding buffer, salt, pH and temperature not printed (per ref 64).
Series [3] has the same target. The series is described as follows: EMSA; three fragments; does not bind with high affinity; EMSA on non-denaturing 5% polyacrylamide slab gel in 1x TBE; binding buffer, salt, pH and temperature not printed (per ref 64). A general note: In EMSA bound probe runs differently from free probe, usually more slowly.

Regarding UGUGACUAAUUG (ssRNA) [Hnrnpa1 12-nt RNA competitor], in series [1], the binding result is on record as “binds”.

Consider AACUCCAGGACUGUAUUUGUGACUAAUUGU (ssRNA) [Hnrnpa1 3' UTR QSBE WT, 30 nt], for which the Kd in series [2] was found to be 36 ± 2 nM.

For the molecule GCUCAUUCUUUGGAGCGGGUGUGUCAUU (ssRNA) [Plp1 ESE fragments (three overlapping)], the binding result in series [3] was “no binding”.

With CAGUGCCCAUUGGUACACACUAACCUCG (ssRNA) [Mbp QSBE], in series [2], the Kd was found to be 44 ± 2 nM.

The values are drawn from article PMC3017110.
